Measurements: patent US20240309099A1 (SYSTIMMUNE, published 2024)
One block for each binder: values may come before it.

Key:
[1] = target: human HER3 (purchased from Acro Bio) (human, UniProt P21860 20-643); experiment: BLI (Octet384), antibody captured on AHC tips, HER3 (Acro Bio) 0-100 nM in solution, global 1:1 fit
[2] = target: T1, His-tagged human EGFR (expressed/purified in-house) (human, UniProt P00533 25-645, limits assumed); experiment: BLI (Octet384), antibody captured on AHC tips, His-tagged EGFR 0-100 nM in solution, global 1:1 fit
T1 construct: Made in-house; also called ErbB1; HER1; not shown: His tag

Kd [1]: 151 nM | Response [1]: 0.294 | koff [1]: 0.0308 s⁻¹ | kon [1]: 204000 M⁻¹ s⁻¹ | Kd [2]: 11.4 nM | Response [2]: 0.194 | koff [2]: 0.000627 s⁻¹ | kon [2]: 55100 M⁻¹ s⁻¹
B1: SI-1X26 (bispecific antibody)
heavy: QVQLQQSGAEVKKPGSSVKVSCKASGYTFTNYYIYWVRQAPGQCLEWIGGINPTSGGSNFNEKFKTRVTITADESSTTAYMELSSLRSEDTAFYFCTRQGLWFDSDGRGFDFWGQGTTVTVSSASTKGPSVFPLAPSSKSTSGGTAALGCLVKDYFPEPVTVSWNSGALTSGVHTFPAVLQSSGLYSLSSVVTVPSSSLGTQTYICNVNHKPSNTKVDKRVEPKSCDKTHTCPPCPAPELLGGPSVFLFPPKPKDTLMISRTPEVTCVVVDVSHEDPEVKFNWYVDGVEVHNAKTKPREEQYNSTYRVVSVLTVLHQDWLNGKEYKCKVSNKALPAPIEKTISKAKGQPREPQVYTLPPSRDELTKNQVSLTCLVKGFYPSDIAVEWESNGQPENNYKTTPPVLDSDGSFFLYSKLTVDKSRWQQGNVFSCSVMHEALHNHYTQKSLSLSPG
light: DIQMTQSPSSLSASVGDRVTITCRSSQNIVHSNGNTYLDWYQQTPGKAPKLLIYKVSNRFSGVPSRFSGSGSGTDFTFTISSLQPEDIATYYCFQYSHVPWTFGCGTKLQITRTVAAPSVFIFPPSDEQLKSGTASVVCLLNNFYPREAKVQWKVDNALQSGNSQESVTEQDSKDSTYSLSSTLTLSKADYEKHKVYACEVTHQGLSSPVTKSFNRGECGGGGSGGGGSGGGGSQVQLQESGGGLVKPGGSLSLSCAASGFTFSSYWMSWVRQAPGKGLEWVANINRDGSASYYVDSVKGRFTISRDDAKNSLYLQMNSLRAEDTAVYYCARDRGVGYFDLWGRGTLVTVSSGGGGSGGGGSGGGGSQSALTQPASVSGSPGQSITISCTGTSSDVGGYNFVSWYQQHPGKAPKLMIYDVSDRPSGVSDRFSGSKSGNTASLIISGLQADDEADYYCSSYGSSSTHVIFGGGTKVTVL
notes: scFv on the C-terminus of the light chain; also called EGFRxHER3 bispecific antibody; nimotuzumab-based bispecific antibody

Kd [1]: 156 nM | Response [1]: 0.264 | koff [1]: 0.0281 s⁻¹ | kon [1]: 180000 M⁻¹ s⁻¹ | Kd [2]: 23.8 nM | Response [2]: 0.171 | koff [2]: 0.00171 s⁻¹ | kon [2]: 71600 M⁻¹ s⁻¹
B2: SI-1X4 (bispecific antibody)
heavy: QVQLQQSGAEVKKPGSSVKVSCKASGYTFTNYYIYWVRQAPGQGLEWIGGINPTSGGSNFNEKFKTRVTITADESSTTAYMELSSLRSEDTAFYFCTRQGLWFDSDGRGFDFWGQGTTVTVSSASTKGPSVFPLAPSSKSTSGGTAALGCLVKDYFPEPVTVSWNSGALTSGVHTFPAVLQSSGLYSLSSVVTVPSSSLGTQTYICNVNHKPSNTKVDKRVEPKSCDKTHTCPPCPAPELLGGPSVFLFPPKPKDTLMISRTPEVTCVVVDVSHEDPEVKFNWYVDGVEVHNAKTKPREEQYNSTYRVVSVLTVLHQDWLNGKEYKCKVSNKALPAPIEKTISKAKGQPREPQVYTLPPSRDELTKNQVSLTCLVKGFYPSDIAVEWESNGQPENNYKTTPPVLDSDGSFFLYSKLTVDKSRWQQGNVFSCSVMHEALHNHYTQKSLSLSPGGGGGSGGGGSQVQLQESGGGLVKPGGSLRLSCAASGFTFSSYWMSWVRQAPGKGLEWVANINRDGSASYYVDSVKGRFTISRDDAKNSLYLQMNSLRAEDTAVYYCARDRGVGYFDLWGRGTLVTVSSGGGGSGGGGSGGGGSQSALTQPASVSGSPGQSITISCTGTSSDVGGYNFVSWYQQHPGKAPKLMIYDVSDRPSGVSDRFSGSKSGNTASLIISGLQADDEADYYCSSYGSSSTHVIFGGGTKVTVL
light: DIQMTQSPSSLSASVGDRVTITCRSSQNIVHSNGNTYLDWYQQTPGKAPKLLIYKVSNRFSGVPSRFSGSGSGTDFTFTISSLQPEDIATYYCFQYSHVPWTFGQGTKLQITRTVAAPSVFIFPPSDEQLKSGTASVVCLLNNFYPREAKVQWKVDNALQSGNSQESVTEQDSKDSTYSLSSTLTLSKADYEKHKVYACEVTHQGLSSPVTKSFNRGEC
notes: Tetravalent IgG-scFv: anti-EGFR Fab with nimotuzumab variable regions, anti-HER3 scFv at the C-terminus of the heavy chain; also called EGFRxHER3 bispecific antibody; nimotuzumab-based bispecific antibody
